# Experimental data from paper PMC3157347.
# Molecular target: V. parahaemolyticus YeaZ, fragment 1-213 as in the crystals (Vibrio parahaemolyticus)
# Assay: crystal structure; X-ray, 3.1 Å; asymmetric unit with four subunits (two dimers related by a non-crystallographic two-fold axis); crystals of fragment 1-213; no nucleotide
substance,measurement,value
"V. parahaemolyticus YeaZ, fragment 1-213 as in the crystals (domain or fragment)",stoichiometry N,2
